Reference: US20070265189A1 (published 2007)

Experiments:
[1] = target: T1, Soluble IGF-1R (sIGF-1R), R&D Systems Cat. # 391-GR/CF (UniProt P08069 31-935, limits assumed); assay: phage ELISA
T1 construct: extracellular domain

[2] = target: T2, soluble human insulin receptor-immunoglobulin heavy chain chimera (sIR-Fc; Bass et al., 1996) (human, UniProt P06213 28-956, limits assumed); assay: phage ELISA
T2 construct: extracellular domain; also called soluble IR (Bass construct); not shown: immunoglobulin heavy chain constant domains

| IGF-1R/IR comparison [1] | Ratio over Background [1] | IR/IGF-1R comparison [2] | Ratio over Background [2] | Binder |
| --- | --- | --- | --- | --- |
| 11.1 | 16.7 | 0.1 | 1.5 | LRIANLFYQRLWDLAFGGGG [20E2B-3-E8-IGFR] |
| 3 | 4.6 | 0.3 | 1.6 | AICDAGFHEHFYDWFALQVSDCGRQS [H2CA-2-B11-IGFR] |
| 21.8 | 28 | < 0.1 | 1.3 | FFYDCLAALLQGVARYHDLCAVEIT [20C-4-C7-IGFR] |
| 2.8 | 37.4 | 0.4 | 13.5 | EAASLGSQDRNFYDWFVRQVV [A6S-2-D11-IR] |
| 13.8 | 8.9 | 0.1 | 0.6 | GNGDGMFYQLLSLLVGRDMHV [20E2B-3-02-IGFR] |
| 14.8 | 16.8 | 0.1 | 1.1 | VEGRGLFYDLLRQLLARRQNG [20E2B-3-C6-IGFR] |
| 11.7 | 18.7 | 0.1 | 1.6 | RGMKEEVLVGGSTDPFYHKLSELLQGS [B6Hα-3-F11-IR] |
| 14.6 | 10.5 | 0.1 | 0.7 | VGRASGFPENFYDWFGRQLSLQSGEQ [H2CA-4-H6-IGFR] |
| 14.6 | 14.6 | 0.1 | 1 | RGCNDDGGKGWSDDPFYHKLSELICGG [B6Hα-1-A2-IR] |
| 13 | 26 |  |  | YRGMLVLGRISGGAGKAASERPARIGQKVSAVNFYDWFV [A6L-0-H3-IR] |
| 20.5 | 20.5 | 0 | 1 | CCTTEMVVMDARDDPFYHKLSELVTGG [B6Hα-1-B5-IR] |
| 10.3 | 30.8 | 0.1 | 3 | DRAFYNGLRDLVGAVYGAWD [R20α-4-20C11-IR] |
| 14.1 | 26.1 | 0.1 | 1.9 | DRDFCRFYERLTALVGGQVDGGWPC [20C-3-F6-IGFR] |
| 27 | 32.3 | < 0.1 | 1.2 | TFYSCLASLLTGTPQPNRGPWERCR [20C-3-G3-IGFR] |
| 3.3 | 6.2 | 0.3 | 1.9 | SQAGSAFYAWFDQVLRTVHSA [20E2Bβ-4-G6-IR] |
| 17 | 31 | 0.1 | 1.8 | YRGMLVLGRSSDGAGKVAFERPARIGQTVFAVNFYDWFV [A6L-0-E6-IR] |
| 2.5 | 24.7 | 0.4 | 9.8 | TSEVQRRSQDNFYDWFVAQVA [A6S-3-E2-IR] |
| 14.2 | 24.2 | 0.1 | 1.7 | RCEEKQAEVGPSSDPFYHKMSELLGCR [B6Hα-3-E9-IR] |
| 12.8 | 9.7 | 0.1 | 0.8 | YSCGDGFYSLLSDLLGGQFRC [20E2B-4-H12-IGFR] |
| 15.8 | 25.2 | 0.1 | 1.6 | LQPCSGFYECIERLIGVKLSG [20E2Bβ-4-G7-IR] |

| IGF-1R/IR comparison [1] | Ratio over Background [1] | IR/IGF-1R comparison [2] | Ratio over Background [2] | Binder |
| --- | --- | --- | --- | --- |
| 2.2 | 2.2 | 0.5 | 1 | HLADGQFHEKFYDWFERQISSRCNDC [H2CA-3-E11-IGFR] |
| 3.5 | 3.4 | 0.3 | 1 | GAPVDQLHEDFYDWFVRQVSQAATG [H2CA-2-B2-IGFR] |
| 3 | 5.6 |  |  | RGAVAGFHDQFYDWFDRQVSRVHKFG [H2CA-4-H9-IGFR] |
| 12.9 | 39.9 | 0.1 | 3.1 | FYDAIDQLVRGSARAGGTRD [R20α-3-20E2-IR] |
| 13.1 | 16.3 | 0.1 | 1.3 | PDLHKGFYAQLAQLIRGQLLS [20E2B-3-E3-IGFR] |
| 2.6 | 30.6 | 0.4 | 12 | VERSASSQDGNFYDWFVVQIR [A6S-2-D1-IR] |
| 17.3 | 25.9 | 0.1 | 1.5 | RGQSDAFYSGLWALIGLSDG [R20β-4-A6-IR] |
| 11.3 | 17.7 | 0.1 | 1.6 | GGTEVDFYRALERLVRGQLGL [20E2B-3-D8-IGFR] |
| 15.5 | 18.7 | 0.1 | 1.2 | LKDGFYDYFWQRLHLGS [NNRPγ-4-B11-IR] |
| 13.9 | 14.8 | 0.1 | 1.1 | KLHNLMFYYGLQRLVWGAGLG [20E2B-4-H3-IGFR] |
| 12.3 | 9.7 | 0.1 | 0.8 | VGYQGQGDENFYDWFIRQVSGRLGVQ [H2CA-4-F5-IGFR] |
| 16.6 | 39.9 | 0.1 | 2.4 | RLFYCGIQALGANLGYSGCV [R20α-4-20A12-IR] |
| 14.6 | 18.8 | 0.1 | 1.3 | QGGSASFYDAIDRLLRMRIGG [20E2A-4-F11-IGFR] |
| 2.9 | 6.3 | 0.3 | 2.2 | LGYQEPFQQNFYDWFVRQVSGAENAG [H2CA-3-E8-IGFR] |
| 3.4 | 11.1 | 0.3 | 3.3 | GFREGSFYDWFQAQVT [E4Dα-2-D11-IR] |
| 13.7 | 20.8 | 0.1 | 1.5 | SSYGCDGFYLMLFSLGLVASQELEC [20C-3-A1-IGFR] |
| 9.7 | 7.3 | 0.1 | 0.8 | PVGVQGFYEGLSRLVLGRGGW [20E2B-4-F8-IGFR] |
| 2.1 | 3.3 | 0.5 | 1.6 | FRTLAAQHDSFYDWFDRQVSGAAGER [H2CA-3-C11-IGFR] |
| 16.8 | 18.1 | 0.1 | 1.1 | GVRAMSFYDALVSVLGLGPSG [20E2B-1-A6-IGFR] |
| 11.7 | 12.4 | 0.1 | 1.1 | IQQELTFYDLLHRLVRSELGS [20E2B-3-D2-IGFR] |
